Source: paper PMC3117075 (2011)
Each block holds one binder with its values, some of them ahead of it. Non-standard residues stand in square brackets, D forms with d. pT = C[C@@H](OP(=O)(O)O)[C@H](N)C(=O)O; pS = N[C@@H](COP(=O)(O)O)C(=O)O

Legend:
[1] = target: T1, Ac-pSATF-CONH2 (peptide 5) (Homo sapiens, UniProt Q9BX63, SMILES CC(=O)N[C@@H](COP(=O)(O)O)C(=O)N[C@@H](C)C(=O)N[C@H](C(=O)N[C@@H](Cc1ccccc1)C(N)=O)[C@@H](C)O); assay: fluorescence polarization competition
T1 chain: Ac-[pS]ATF-NH2

[2] = target: T2, Ac-pTPTF-CONH2 (peptide 4) (Homo sapiens, UniProt Q9BX63, SMILES CC(=O)N[C@H](C(=O)N1CCC[C@H]1C(=O)N[C@H](C(=O)N[C@@H](Cc1ccccc1)C(N)=O)[C@@H](C)O)[C@@H](C)OP(=O)(O)O); assay: fluorescence polarization competition
T2 chain: Ac-[pT]PTF-NH2

[3] = target: T3, Ac-pSPTF-CONH2 (peptide 1) (Homo sapiens, UniProt Q9BX63, SMILES CC(=O)N[C@@H](COP(=O)(O)O)C(=O)N1CCC[C@H]1C(=O)N[C@H](C(=O)N[C@@H](Cc1ccccc1)C(N)=O)[C@@H](C)O); assay: fluorescence polarization competition
T3 chain: Ac-[pS]PTF-NH2

[4] = target: T4, Ac-EPTF-CONH2 (peptide 2) (Homo sapiens, UniProt Q9BX63); assay: fluorescence polarization competition
T4 chain: Ac-EPTF-NH2

[5] = target: T5, Ac-pSPTF-COOH (peptide 18) (Homo sapiens, UniProt Q9BX63, SMILES CC(=O)N[C@@H](COP(=O)(O)O)C(=O)N1CCC[C@H]1C(=O)N[C@H](C(=O)N[C@@H](Cc1ccccc1)C(=O)O)[C@@H](C)O); assay: ITC
T5 chain: Ac-[pS]PTF-OH

[6] = target: T6, Ac-pSPSF-CONH2 (peptide 8) (Homo sapiens, UniProt Q9BX63, SMILES CC(=O)N[C@@H](COP(=O)(O)O)C(=O)N1CCC[C@H]1C(=O)N[C@@H](CO)C(=O)N[C@@H](Cc1ccccc1)C(N)=O); assay: fluorescence polarization competition
T6 chain: Ac-[pS]PSF-NH2

[7] = target: T7, Ac-pSPAF-CONH2 (peptide 6) (Homo sapiens, UniProt Q9BX63, SMILES CC(=O)N[C@@H](COP(=O)(O)O)C(=O)N1CCC[C@H]1C(=O)N[C@@H](C)C(=O)N[C@@H](Cc1ccccc1)C(N)=O); assay: fluorescence polarization competition
T7 chain: Ac-[pS]PAF-NH2

[8] = target: T8, Ac-pSPVF-COOH (peptide 19) (Homo sapiens, UniProt Q9BX63, SMILES CC(=O)N[C@@H](COP(=O)(O)O)C(=O)N1CCC[C@H]1C(=O)N[C@H](C(=O)N[C@@H](Cc1ccccc1)C(=O)O)C(C)C); assay: fluorescence polarization competition
T8 chain: Ac-[pS]PVF-OH

[9] = target: T5, Ac-pSPTF-COOH (peptide 18); assay: fluorescence polarization competition
[10] = target: T9, Ac-pSPPF-CONH2 (peptide 15) (Homo sapiens, UniProt Q9BX63, SMILES CC(=O)N[C@@H](COP(=O)(O)O)C(=O)N1CCC[C@H]1C(=O)N1CCC[C@H]1C(=O)N[C@@H](Cc1ccccc1)C(N)=O); assay: fluorescence polarization competition
T9 chain: Ac-[pS]PPF-NH2

[11] = target: T10, Ac-pSPVF-CONH2 (peptide 7) (Homo sapiens, UniProt Q9BX63, SMILES CC(=O)N[C@@H](COP(=O)(O)O)C(=O)N1CCC[C@H]1C(=O)N[C@H](C(=O)N[C@@H](Cc1ccccc1)C(N)=O)C(C)C); assay: fluorescence polarization competition
T10 chain: Ac-[pS]PVF-NH2

IC50 [1]: 15 µM | IC50 [2]: > 250 µM | IC50 [3]: 4.6 µM | IC50 [4]: > 250 µM
B1: BRCA1 BRCT (protein)
chain: VNKRMSMVVSGLTPEEFMLVYKFARKHHITLTNLITEETTHVVMKTDAEFVCERTLKYFLGIAGGKWVVSYFWVTQSIKERKMLNEHDFEVRGDVVNGRNHQGPKRARESQDRKIFRGLEICCYGPFTNMPTDQLEWMVQLCGASVVKELSSFTLGTGVHPIVVVQPDAWTEDNGFHAIGQMCEAPVVTREWVLDSVALYQCQELDTYLIPQIP

Kd [5]: 0.19 µM | IC50 [6]: 30.1 µM | IC50 [7]: 35 µM | IC50 [8]: 1.6 µM | IC50 [9]: 1 µM | IC50 [10]: > 250 µM | IC50 [11]: 3.2 µM
B2: BRCA1 BRCT (protein)
chain: STERVNKRMSMVVSGLTPEEFMLVYKFARKHHITLTNLITEETTHVVMKTDAEFVCERTLKYFLGIAGGKWVVSYFWVTQSIKERKMLNEHDFEVRGDVVNGRNHQGPKRARESQDRKIFRGLEICCYGPFTNMPTDQLEWMVQLCGASVVKELSSFTLGTGVHPIVVVQPDAWTEDNGFHAIGQMCEAPVVTREWVLDSVALYQCQELDTYLI
